Assay results taken from IntAct's records for PubMed 31515488.

B1: Late cornified envelope protein 1B (Homo sapiens), Q5T7P3 (parent)
chain: MSCQQNQQQCQPPPKCIPKCPPKCLTPRCPPKCPPKCPPVSSCCSVSSGGCCGSSSGGSCGSSSGGCCSSGGGGCCLSHHRRRRSHCHRPQSSGCCSQPSGGSSCCGGGSGQHSGGCC
B2: Retinoic acid receptor alpha (Homo sapiens), P10276 (parent)
chain: MASNSSSCPTPGGGHLNGYPVPPYAFFFPPMLGGLSPPGALTTLQHQLPVSGYSTPSPATIETQSSSSEEIVPSPPSPPPLPRIYKPCFVCQDKSSGYHYGVSACEGCKGFFRRSIQKNMVYTCHRDKNCIINKVTRNRCQYCRLQKCFEVGMSKESVRNDRNKKKKEVPKPECSESYTLTPEVGELIEKVRKAHQETFPALCQLGKYTTNNSSEQRVSLDIDLWDKFSELSTKCIIKTVEFAKQLPGFTTLTIADQITLLKAACLDILILRICTRYTPEQDTMTFSDGLTLNRTQMHNAGFGPLTDLVFAFANQLLPLEMDDAETGLLSAICLICGDRQDLEQPDRVDMLQEPLLEALKVYVRKRRPSRPHMFPKMLMKITDLRSISAKGAERVITLKMEIPGSMPPLIQEMLENSEGLDTLSGQPGGGGRDGGGLAPPPGSCSPSLSPSSNRSSPATHSP
partner: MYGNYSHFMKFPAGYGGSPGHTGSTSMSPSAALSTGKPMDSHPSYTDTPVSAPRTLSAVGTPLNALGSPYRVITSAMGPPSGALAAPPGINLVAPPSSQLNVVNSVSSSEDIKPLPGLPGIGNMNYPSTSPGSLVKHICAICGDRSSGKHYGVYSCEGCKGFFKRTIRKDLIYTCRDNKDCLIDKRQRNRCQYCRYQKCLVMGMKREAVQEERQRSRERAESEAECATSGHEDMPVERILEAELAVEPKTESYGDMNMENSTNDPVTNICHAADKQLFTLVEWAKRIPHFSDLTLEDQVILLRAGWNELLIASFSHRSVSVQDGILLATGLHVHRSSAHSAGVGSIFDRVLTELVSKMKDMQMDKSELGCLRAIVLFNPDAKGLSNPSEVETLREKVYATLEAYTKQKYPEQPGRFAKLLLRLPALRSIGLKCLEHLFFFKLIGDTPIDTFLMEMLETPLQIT
B3: Zinc finger protein 414 (Homo sapiens), Q96IQ9 (parent)
chain: MEEKPSGPIPDMLATAEPSSSETDKEVLSPAVPAAAPSSSMSEEPGPEQAATPPVWERGGAGGMQQGSSPAPDSCQPGPGPSPGLTSIVSGTSEDLRPPRRRPPPGKQIPCSSPGCCLSFPSVRDLAQHLRTHCPPTQSLEGKLFRCSALSCTETFPSMQELVAHSKLHYKPNRYFKCENCLLRFRTHRSLFKHLHVCAEHAQSPAPPPPPALDREPPAPERPPEVDPASAPGLPFPLLEPFTTPAPAPTGPFLPYLNPAPFGLSPPRLRPFLAAAPGPPASSAAVWKKSQGAGSSPRRPQGGSDAPSGACR
partner: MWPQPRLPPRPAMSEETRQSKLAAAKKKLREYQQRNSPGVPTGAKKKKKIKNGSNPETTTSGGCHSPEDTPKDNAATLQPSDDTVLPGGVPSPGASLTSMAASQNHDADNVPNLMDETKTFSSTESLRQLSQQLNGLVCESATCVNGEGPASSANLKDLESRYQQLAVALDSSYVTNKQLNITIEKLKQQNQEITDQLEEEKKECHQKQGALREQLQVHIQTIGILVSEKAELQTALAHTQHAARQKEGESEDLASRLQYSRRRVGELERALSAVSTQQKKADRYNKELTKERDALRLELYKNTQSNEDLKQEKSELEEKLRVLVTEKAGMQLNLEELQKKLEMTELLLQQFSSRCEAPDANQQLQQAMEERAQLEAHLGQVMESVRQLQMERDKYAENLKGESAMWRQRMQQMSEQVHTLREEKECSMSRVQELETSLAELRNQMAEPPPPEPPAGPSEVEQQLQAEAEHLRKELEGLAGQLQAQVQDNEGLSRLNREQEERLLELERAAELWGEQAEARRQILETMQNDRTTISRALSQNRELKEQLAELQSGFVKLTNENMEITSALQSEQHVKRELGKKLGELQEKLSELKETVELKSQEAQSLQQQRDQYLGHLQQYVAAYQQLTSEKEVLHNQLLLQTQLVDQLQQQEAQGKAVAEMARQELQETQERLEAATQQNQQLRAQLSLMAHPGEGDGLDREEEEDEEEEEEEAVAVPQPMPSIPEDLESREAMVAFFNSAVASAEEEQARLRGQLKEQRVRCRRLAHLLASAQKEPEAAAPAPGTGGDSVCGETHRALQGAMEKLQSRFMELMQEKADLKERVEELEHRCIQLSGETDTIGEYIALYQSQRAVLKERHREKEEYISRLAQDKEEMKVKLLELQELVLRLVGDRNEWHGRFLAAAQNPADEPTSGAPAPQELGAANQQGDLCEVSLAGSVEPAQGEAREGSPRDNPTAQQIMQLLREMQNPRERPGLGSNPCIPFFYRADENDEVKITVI
B4: Protein LDOC1 (Homo sapiens), O95751 (parent)
chain: MVDELVLLLHALLMRHRALSIENSQLMEQLRLLVCERASLLRQVRPPSCPVPFPETFNGESSRLPEFIVQTASYMLVNENRFCNDAMKVAFLISLLTGEAEEWVVPYIEMDSPILGDYRAFLDEMKQCFGWDDDEDDDDEEEEDDY
partner: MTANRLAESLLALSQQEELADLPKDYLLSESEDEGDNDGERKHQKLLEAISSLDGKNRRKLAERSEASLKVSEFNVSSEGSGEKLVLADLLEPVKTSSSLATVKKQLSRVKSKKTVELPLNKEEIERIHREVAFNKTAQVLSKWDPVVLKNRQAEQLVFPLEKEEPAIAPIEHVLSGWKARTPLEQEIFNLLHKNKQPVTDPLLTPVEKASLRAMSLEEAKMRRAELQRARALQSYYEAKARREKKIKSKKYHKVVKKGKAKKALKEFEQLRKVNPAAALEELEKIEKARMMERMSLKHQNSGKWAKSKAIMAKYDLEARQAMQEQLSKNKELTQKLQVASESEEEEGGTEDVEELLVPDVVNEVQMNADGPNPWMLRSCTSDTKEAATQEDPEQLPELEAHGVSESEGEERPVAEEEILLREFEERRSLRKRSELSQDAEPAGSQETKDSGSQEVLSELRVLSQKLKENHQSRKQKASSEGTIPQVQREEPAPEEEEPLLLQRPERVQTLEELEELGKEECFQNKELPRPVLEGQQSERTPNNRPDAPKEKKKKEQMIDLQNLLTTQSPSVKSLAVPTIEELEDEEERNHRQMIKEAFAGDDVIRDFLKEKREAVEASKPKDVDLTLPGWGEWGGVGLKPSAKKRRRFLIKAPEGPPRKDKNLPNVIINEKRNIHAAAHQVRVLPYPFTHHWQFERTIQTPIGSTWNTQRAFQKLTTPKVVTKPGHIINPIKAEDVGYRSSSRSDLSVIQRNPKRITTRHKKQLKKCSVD
B5: Dystrobrevin beta (Homo sapiens), O60941 (parent)
chain: MIEESGNKRKTMAEKRQLFIEMRAQNFDVIRLSTYRTACKLRFVQKRCNLHLVDIWNMIEAFRDNGLNTLDHTTEISVSRLETVISSIYYQLNKRLPSTHQISVEQSISLLLNFMIAAYDSEGRGKLTVFSVKAMLATMCGGKMLDKLRYVFSQMSDSNGLMIFSKFDQFLKEVLKLPTAVFEGPSFGYTEHSVRTCFPQQRKIMLNMFLDTMMADPPPQCLVWLPLMHRLAHVENVFHPVECSYCRCESMMGFRYRCQQCHNYQLCQNCFWRGHAGGPHSNQHQMKEHSSWKSPAKKLSHAISKSLGCVPTREPPHPVFPEQPEKPLDLAHIVPPRPLTNMNDTMVSHMSSGVPTPTKRLQYSQDIPSHLADEHALIASYVARLQHCARVLDSPSRLDEEHRLIARYAARLAAEAGNVTRPPTDLSFNFDANKQQRQLIAELENKNREILQEIQRLRLEHEQASQPTPEKAQQNPTLLAELRLLRQRKDELEQRMSALQESRRELMVQLEELMKLLKEEEQKQAAQATGSPHTSPTHGGGRPMPMPVRSTSAGSTPTHCPQDSLSGVGGDVQEAFAQGTRRNLRNDLLVAADSITNTMSSLVKELHSAEEGAEEEEEKMQNGKDRG
B6: Ligand of Numb protein X 2 (Homo sapiens), Q8N448 (parent)
chain: MGTTSDEMVSVEQTSSSSLNPLCFECGQQHWTRENHLYNYQNEVDDDLVCHICLQPLLQPLDTPCGHTFCYKCLRNFLQEKDFCPLDRKRLHFKLCKKSSILVHKLLDKLLVLCPFSSVCKDVMQRCDLEAHLKNRCPGASHRRVALERRKTSRTQAEIENENGPTLLDPAGTLSPEADCLGTGAVPVERHLTSASLSTWSEEPGLDNPAFEESAGADTTQQPLSLPEGEITTIEIHRSNPYIQLGISIVGGNETPLINIVIQEVYRDGVIARDGRLLAGDQILQVNNYNISNVSHNYARAVLSQPCNTLHLTVLRERRFGNRAHNHSDSNSPREEIFQVALHKRDSGEQLGIKLVRRTDEPGVFILDLLEGGLAAQDGRLSSNDRVLAINGHDLKYGTPELAAQIIQASGERVNLTIARPGKPQPGNTIREAGNHSSSSQHHTPPPYYSRPSSHKDLTQCVTCQEKHITVKKEPHESLGMTVAGGRGSKSGELPIFVTSVPPHGCLARDGRIKRGDVLLNINGIDLTNLSHSEAVAMLKASAASPAVALKALEVQIVEEATQNAEEQPSTFSENEYDASWSPSWVMWLGLPSTLHSCHDIVLRRSYLGSWGFSIVGGYEENHTNQPFFIKTIVLGTPAYYDGRLKCGDMIVAVNGLSTVGMSHSALVPMLKEQRNKVTLTVICWPGSLV
partner: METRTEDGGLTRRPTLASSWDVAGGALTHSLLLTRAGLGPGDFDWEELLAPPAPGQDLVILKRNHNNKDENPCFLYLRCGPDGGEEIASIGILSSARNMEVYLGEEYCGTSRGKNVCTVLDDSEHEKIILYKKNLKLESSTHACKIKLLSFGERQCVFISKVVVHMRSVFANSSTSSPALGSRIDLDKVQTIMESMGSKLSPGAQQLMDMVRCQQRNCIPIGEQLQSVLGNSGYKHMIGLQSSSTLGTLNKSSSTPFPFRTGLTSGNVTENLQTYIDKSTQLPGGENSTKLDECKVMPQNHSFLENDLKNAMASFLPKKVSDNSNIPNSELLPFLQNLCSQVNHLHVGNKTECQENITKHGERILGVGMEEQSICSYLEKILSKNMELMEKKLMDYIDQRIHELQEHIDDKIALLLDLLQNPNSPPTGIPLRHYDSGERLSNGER
B7: Heterogeneous nuclear ribonucleoprotein R (Homo sapiens), O43390 (parent)
chain: MANQVNGNAVQLKEEEEPMDTSSVTHTEHYKTLIEAGLPQKVAERLDEIFQTGLVAYVDLDERAIDALREFNEEGALSVLQQFKESDLSHVQNKSAFLCGVMKTYRQREKQGSKVQESTKGPDEAKIKALLERTGYTLDVTTGQRKYGGPPPDSVYSGVQPGIGTEVFVGKIPRDLYEDELVPLFEKAGPIWDLRLMMDPLSGQNRGYAFITFCGKEAAQEAVKLCDSYEIRPGKHLGVCISVANNRLFVGSIPKNKTKENILEEFSKVTEGLVDVILYHQPDDKKKNRGFCFLEYEDHKSAAQARRRLMSGKVKVWGNVVTVEWADPVEEPDPEVMAKVKVLFVRNLATTVTEEILEKSFSEFGKLERVKKLKDYAFVHFEDRGAAVKAMDEMNGKEIEGEEIEIVLAKPPDKKRKERQAARQASRSTAYEDYYYHPPPRMPPPIRGRGRGGGRGGYGYPPDYYGYEDYYDDYYGYDYHDYRGGYEDPYYGYDDGYAVRGRGGGRGGRGAPPPPRGRGAPPPRGRAGYSQRGAPLGPPRGSRGGRGGPAQQQRGRGSRGSRGNRGGNVGGKRKADGYNQPDSKRRQTNNQQNWGSQPIAQQPLQQGGDYSGNYGYNNDNQEFYQDTYGQQWK

Variants of: B1
Conditions: with hxa1_human HOXA1, P49639
Chain of hxa1_human HOXA1, P49639 (P49639 whole entry): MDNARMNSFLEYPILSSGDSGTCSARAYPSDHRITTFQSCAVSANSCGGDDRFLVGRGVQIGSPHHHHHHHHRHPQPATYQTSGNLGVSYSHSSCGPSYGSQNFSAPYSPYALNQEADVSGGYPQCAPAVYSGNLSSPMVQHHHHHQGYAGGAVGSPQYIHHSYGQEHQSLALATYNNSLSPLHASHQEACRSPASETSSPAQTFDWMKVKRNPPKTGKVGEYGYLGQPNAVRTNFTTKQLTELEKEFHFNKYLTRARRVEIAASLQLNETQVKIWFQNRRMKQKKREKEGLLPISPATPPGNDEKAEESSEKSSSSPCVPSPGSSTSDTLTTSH

Row | effect of a mutation on the interaction | Variant
1 | with no effect | C51Y
2 | with no effect | G108E

Variants of: B1
Conditions: with nt2na_human NOTCH2NLA

Row | effect of a mutation on the interaction | Variant
3 | with no effect | C51Y
4 | with no effect | G108E

Variants of: B1
Conditions: with kr101_human KRTAP10-1, P60331
Chain of kr101_human KRTAP10-1, P60331 (P60331 whole entry): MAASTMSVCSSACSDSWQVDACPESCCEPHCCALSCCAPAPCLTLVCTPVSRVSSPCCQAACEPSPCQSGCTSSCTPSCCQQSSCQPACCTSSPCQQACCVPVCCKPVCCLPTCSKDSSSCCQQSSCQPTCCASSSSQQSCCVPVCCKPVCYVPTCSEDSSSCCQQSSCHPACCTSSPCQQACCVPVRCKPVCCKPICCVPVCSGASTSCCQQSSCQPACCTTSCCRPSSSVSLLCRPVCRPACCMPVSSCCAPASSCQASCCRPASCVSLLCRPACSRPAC

Row | effect of a mutation on the interaction | Variant
5 | with no effect | C51Y
6 | with no effect | G108E

Variants of: B1
Conditions: with otx1_human OTX1, P32242
Chain of otx1_human OTX1, P32242 (P32242 whole entry): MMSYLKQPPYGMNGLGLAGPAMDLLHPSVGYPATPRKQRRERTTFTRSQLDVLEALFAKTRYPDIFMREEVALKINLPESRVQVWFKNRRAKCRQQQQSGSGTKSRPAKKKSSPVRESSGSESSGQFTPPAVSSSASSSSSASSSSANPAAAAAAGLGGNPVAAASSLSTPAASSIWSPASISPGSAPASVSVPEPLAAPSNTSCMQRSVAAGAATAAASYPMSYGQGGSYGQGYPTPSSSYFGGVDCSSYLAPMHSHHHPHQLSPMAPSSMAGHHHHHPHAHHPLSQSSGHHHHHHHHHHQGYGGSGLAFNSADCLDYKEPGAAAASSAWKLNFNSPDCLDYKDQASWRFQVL

Row | effect of a mutation on the interaction | Variant
7 | with no effect | C51Y
8 | with no effect | G108E

Variants of: B2
Conditions: with rxrg_human RXRG

Row | effect of a mutation on the interaction | Variant
9 | with no effect | P318R

Variants of: B3
Conditions: with goga2_human GOLGA2, Q08379

Row | effect of a mutation on the interaction | Variant
10 | with no effect | S166G
11 | with no effect | P77S

Variants of: B4
Conditions: with ut14a_human UTP14A

Row | effect of a mutation on the interaction | Variant
12 | with no effect | L12H

Variants of: B5
Conditions: with cep63_human CEP63, Q96MT8
Chain of cep63_human CEP63, Q96MT8 (Q96MT8 whole entry): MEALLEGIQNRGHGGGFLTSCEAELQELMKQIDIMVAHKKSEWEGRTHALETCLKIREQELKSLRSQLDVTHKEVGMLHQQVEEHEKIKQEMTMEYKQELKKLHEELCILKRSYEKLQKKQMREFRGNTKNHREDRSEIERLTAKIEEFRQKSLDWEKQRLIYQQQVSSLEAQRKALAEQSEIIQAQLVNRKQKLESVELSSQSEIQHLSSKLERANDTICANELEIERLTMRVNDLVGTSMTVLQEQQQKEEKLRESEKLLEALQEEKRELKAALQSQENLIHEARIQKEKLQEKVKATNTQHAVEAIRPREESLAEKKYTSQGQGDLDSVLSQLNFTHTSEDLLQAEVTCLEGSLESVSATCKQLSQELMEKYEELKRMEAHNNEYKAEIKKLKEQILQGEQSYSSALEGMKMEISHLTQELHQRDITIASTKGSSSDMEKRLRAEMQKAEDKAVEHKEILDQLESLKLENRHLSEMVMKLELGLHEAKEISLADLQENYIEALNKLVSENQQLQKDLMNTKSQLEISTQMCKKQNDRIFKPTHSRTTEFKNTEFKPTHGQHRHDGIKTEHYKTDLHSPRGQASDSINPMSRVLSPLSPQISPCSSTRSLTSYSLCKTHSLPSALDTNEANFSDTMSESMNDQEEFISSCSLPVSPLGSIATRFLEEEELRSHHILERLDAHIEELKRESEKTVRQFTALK

Row | effect of a mutation on the interaction | Variant
13 | with no effect | R80H

Variants of: B5
Conditions: with traf2_human TRAF2, Q12933
Chain of traf2_human TRAF2, Q12933 (Q12933 whole entry): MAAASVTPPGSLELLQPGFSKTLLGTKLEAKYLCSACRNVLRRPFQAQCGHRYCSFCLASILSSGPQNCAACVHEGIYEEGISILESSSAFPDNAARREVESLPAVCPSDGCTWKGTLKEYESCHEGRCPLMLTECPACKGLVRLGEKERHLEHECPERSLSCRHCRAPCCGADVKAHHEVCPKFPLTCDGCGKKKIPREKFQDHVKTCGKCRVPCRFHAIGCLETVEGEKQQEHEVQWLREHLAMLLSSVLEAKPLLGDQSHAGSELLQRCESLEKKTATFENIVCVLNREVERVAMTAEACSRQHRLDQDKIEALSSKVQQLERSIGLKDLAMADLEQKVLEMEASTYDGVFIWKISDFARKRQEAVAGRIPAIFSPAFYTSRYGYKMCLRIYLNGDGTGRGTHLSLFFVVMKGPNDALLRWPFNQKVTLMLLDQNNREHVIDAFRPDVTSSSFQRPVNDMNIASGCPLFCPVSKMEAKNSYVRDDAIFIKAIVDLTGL

Row | effect of a mutation on the interaction | Variant
14 | with no effect | R80H
15 | with no effect | S396G

Variants of: B5
Conditions: with tera_human VCP

Row | effect of a mutation on the interaction | Variant
16 | with no effect | R80H
17 | with no effect | S396G

Variants of: B5
Conditions: with abi2_human ABI2, Q9NYB9
Chain of abi2_human ABI2, Q9NYB9 (Q9NYB9 whole entry): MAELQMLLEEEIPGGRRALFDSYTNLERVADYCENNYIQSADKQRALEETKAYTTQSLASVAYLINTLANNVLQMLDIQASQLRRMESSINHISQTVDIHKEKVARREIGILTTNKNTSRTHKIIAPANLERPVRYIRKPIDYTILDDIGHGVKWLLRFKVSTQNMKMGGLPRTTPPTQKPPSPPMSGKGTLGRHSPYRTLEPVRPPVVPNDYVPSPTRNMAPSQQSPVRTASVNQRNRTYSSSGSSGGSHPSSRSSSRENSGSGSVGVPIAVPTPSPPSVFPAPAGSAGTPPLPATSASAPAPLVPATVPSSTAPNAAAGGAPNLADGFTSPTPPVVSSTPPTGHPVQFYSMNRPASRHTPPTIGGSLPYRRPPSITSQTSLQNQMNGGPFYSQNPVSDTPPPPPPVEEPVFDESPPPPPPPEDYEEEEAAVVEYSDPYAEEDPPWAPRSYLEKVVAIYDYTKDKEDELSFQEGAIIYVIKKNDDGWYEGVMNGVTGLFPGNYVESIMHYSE

Row | effect of a mutation on the interaction | Variant
18 | with no effect | R80H

Variants of: B5
Conditions: with lipa1_human PPFIA1, Q13136
Chain of lipa1_human PPFIA1, Q13136 (Q13136 whole entry): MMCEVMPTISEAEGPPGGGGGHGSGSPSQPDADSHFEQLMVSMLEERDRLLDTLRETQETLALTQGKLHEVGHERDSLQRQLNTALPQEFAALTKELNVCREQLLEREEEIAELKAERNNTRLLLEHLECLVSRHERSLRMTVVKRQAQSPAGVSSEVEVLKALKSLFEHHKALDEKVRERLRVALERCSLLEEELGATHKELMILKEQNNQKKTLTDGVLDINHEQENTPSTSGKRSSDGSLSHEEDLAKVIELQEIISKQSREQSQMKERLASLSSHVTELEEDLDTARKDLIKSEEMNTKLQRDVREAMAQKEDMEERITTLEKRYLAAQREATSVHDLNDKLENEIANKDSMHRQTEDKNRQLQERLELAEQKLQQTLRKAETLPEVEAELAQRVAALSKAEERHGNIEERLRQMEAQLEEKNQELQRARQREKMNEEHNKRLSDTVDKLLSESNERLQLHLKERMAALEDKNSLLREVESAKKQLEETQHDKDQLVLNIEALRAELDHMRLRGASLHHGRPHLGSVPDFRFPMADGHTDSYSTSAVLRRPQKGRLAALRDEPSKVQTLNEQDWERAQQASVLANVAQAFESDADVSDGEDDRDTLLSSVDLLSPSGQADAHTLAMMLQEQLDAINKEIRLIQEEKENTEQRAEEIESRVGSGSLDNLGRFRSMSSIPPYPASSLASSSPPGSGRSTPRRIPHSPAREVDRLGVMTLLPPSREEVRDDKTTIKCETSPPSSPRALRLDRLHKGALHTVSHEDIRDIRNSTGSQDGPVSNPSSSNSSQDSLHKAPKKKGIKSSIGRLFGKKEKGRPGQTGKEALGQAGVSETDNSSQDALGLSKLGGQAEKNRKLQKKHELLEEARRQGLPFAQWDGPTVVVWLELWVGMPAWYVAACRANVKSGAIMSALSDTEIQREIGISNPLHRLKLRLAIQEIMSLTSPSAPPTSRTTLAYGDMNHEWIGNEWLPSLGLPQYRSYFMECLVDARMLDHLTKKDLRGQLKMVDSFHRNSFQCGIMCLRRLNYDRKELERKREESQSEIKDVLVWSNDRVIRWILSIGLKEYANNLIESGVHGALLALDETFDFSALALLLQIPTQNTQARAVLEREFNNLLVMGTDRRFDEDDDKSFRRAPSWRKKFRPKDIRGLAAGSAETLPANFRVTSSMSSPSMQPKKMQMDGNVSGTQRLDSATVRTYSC

Row | effect of a mutation on the interaction | Variant
19 | with no effect | S396G

Variants of: B5
Conditions: with dmd_human DMD

Row | effect of a mutation on the interaction | Variant
20 | with no effect | S396G

Variants of: B6
Conditions: with paat_human PAAT

Row | effect of a mutation on the interaction | Variant
21 | with no effect | T183I
22 | with no effect | V145I

Variants of: B7
Conditions: with anm1_human PRMT1, Q99873
Chain of anm1_human PRMT1, Q99873 (Q99873 whole entry, looked up): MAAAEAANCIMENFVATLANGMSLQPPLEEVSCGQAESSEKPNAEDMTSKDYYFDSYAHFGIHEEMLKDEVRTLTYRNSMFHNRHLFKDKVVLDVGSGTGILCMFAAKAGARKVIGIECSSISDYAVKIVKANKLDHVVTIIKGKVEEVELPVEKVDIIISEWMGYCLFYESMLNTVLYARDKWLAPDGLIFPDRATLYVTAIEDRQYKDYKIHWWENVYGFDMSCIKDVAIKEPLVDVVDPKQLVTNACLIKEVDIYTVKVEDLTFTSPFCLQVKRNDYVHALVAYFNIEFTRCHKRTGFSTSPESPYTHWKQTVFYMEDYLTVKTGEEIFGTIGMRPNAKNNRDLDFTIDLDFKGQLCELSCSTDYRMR

Row | effect of a mutation on the interaction | Variant
23 | with no effect | S530T
